Test: yeast display, Sf9 membrane polyspecificity reagent, FACS + sequencing; frameworks hold sequencing errors
Procedure, shortened: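 A nanobody's polyreactivity label depends on the gate it was sorted from. Yeast display cells were stained with 10% biotinylated, detergent-solubilized Sf9 membrane reagent for 1 hour at 4 °C, enriched on streptavidin microbeads and sorted by FACS. The low and high (top ~1%) gates were set on anti-HA fluorescence for expression and streptavidin fluorescence for reagent binding.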
With “QVQLVESGGGIVQAGGSLRLSCAASGRTFRRYVMGWYRQAPGKERELVAAITVSGGNTYYADSVKGSFTISRDNAKNTVYLQMNSLKPEDTAVYYCNADAGAIYYRRYHFYYWGQGTQVTVSS” the “polyreactivity (PSR sort gate)” value was “low polyreactivity”. With “QVQLVESGGGIVQAGGSLRLSCAASGRTFRSNVMGWYRQAPGKERELVAAISWRGGNTHYADSVKGRFTISRDNAKNTVYLQMNSLKREDTAVFYCAARVTSRRDPDQIHGYWGQGTQVTVSS” the “polyreactivity (PSR sort gate)” value was “high polyreactivity”. In the case of “QVQLVESGGGIVQAGGSLRLSCAASGRTFRYNTMGSYRQAPGKERELVAAINSRGGSTYYADSVKGRFTISRDNAKNTVYLQMNSLKPEDTAVYYCAALTRYNTASGYDYWGQGTQVTVSS”, the “polyreactivity (PSR sort gate)” value is reported as “high polyreactivity”. For “QVQLVESGGGIVQAGGSLRLSCAASGRTFSSYARGWYRQAPGKERELVAAISSDGVDTYYADSVKGRFTISRDNAKNTVYLQMNSLKPEDTAVYYCNAEEGGPEYAYSYYRMDYWGQGTQVTVSS”, the “polyreactivity (PSR sort gate)” value was “low polyreactivity”. With “QVQLVESGGGIVQAGGSLRLSCAASGRTFYANAMGWYRQAPGKERELVAAISTVGDGTYYADSVKGRFTISRDNAKYTVYLQMNSLKPEDTAVYYCAVRHRASGILYDYWRQGTQVTVSS” the “polyreactivity (PSR sort gate)” value was “low polyreactivity”. For “QVQLVESGGGIVQAGGSLRLSCAASGRTFYSSAMGWYRQAPGKERALVAAITSDGGTYYADSVKGRFTISRDNAKNTVYLQMNSLKPEDTAVYYCNTRDLYGYPQVTGYDYWGQGSQVTVSS”, the “polyreactivity (PSR sort gate)” value was “low polyreactivity”. For “QVQLVESGGGIVQAGGSLRLSCAASGRTLQRNAMGWYRQAPGKERELVAAISWSGASTYYADSVKGRFTISRDNAKNTVYLQMNSLKPEDTAVYYCAATYIDRGNIYDYWGQGTQVTVSS”, the “polyreactivity (PSR sort gate)” value was “high polyreactivity”. With “QVQLVESGGGIVQAGGSLRLSCAASGSIFDVYAMGWYRQAPGKERELVAAITWRGGNTYYADSVKGRFTISRDNAKNTVYLQMNSLKPEDTAVYYCNALHRIRYTPSSRYDYWGQGTQVTVSS” the “polyreactivity (PSR sort gate)” value was “low polyreactivity”. With “QVQLVESGGGIVQAGGSLRLSCAASGSIFHYYAMGWYRQAPGKESELVAAISWSGGRTNYADSVKGRFTISRDNAKNTVYLQMNSLKPEDTAVYYCAAAERSFSGGGKIGKYYYWGQGTQVTVSS” the “polyreactivity (PSR sort gate)” value was “high polyreactivity”. For “QVQLVESGGGIVQAGGSLRLSCAASGSIFLYYAMGWYRQAPGKERELVAPIRGSGSSTYYADSVKGRFTISRDNAKNTVYLQMNSLKPEDTAVYYCSAKGYRWFRHGGYYFKFDYWGQGTQVTVSS”, the “polyreactivity (PSR sort gate)” value was “high polyreactivity”. For “QVQLVESGGGIVQAGGSLRLSCAASGSIFPDNAMGWYRQAPGKERELVAAIDKGTGSTNYADSVKGRFTISRDNAKNTVYLQMNSLKPEDTAVYYDYWGQGTQVSVSS”, the “polyreactivity (PSR sort gate)” value was “low polyreactivity”. With “QVQLVESGGGIVQAGGSLRLSCAASGSIFPDNTMGWYRQAPGKERELVAAITGDGSTYYADSVKGRFTISRDNAKNTVYLERNSLKPEDTAVYYCAAASPSWSYWPRDYWGQGTQVTVSS” the “polyreactivity (PSR sort gate)” value was “low polyreactivity”. In the case of “QVQLVESGGGIVQAGGSLRLSCAASGSIFSYYAMGWYRQAPGKERELVAAITSGGATTYYADSVKGRFTISRDNAKNTVYLQMNSLKPEDTAVYYCAAGYYVYYRWWELDYWGQGTQVTVSS”, the “polyreactivity (PSR sort gate)” value is reported as “low polyreactivity”. With “QVQLVESGGGIVQAGGSLRLSCAASGSISVPYGMGWYRPAPGKERELVAAITGGSTYYADSVKGRFTISRDNAKNTVYLQMNSLIPEDTAVYYCFDVNTDVLSRVYRGWGYYYWGQGTQVTVSS” the “polyreactivity (PSR sort gate)” value was “low polyreactivity”. In the case of “QVQLVESGGGIVQAGGSLRLSCAASGSNFVVNAMGWYRQAPGKERELVAAITQSGGSTFYADSVKGRFTISRDNAKNTVYLQMNSLIPEDTAVYYWGQGTQVTVSS”, the “polyreactivity (PSR sort gate)” value is reported as “low polyreactivity”. With “QVQLVESGGGIVQAGGSLRLSCAASGSTFAANAMGWYRPAPGKERELVAAITSGGGSTYYADSVKGRFTISRDNAKNTVYLQMNSLKPEDTAVYYCNAADWLETQVDLDYWGQGTQVTVSS” the “polyreactivity (PSR sort gate)” value was “low polyreactivity”. With “QVQLVESGGGIVQAGGSLRLSCAASGSTFFSYAMGLYRQAPGKERELVAGIDWNGGDTNYADSVKGRFTISRDNAKNTVYLQMNSLKPEETAVYYCATDYSFPGPFRRRERFDYWGQGTQVTVSS” the “polyreactivity (PSR sort gate)” value was “low polyreactivity”. For “QVQLVESGGGIVQAGGSLRLSCAASGSTFGFYAMGWYRQAPGKERELVAAISSAARTYYADSVKGRFTISRDNAMNTVYLQMNSMKPEDTAVYYCSAEAYHWTSYIGYGGVYYWGQGTKVTVSS”, the “polyreactivity (PSR sort gate)” value was “low polyreactivity”. With “QVQLVESGGGIVQAGGSLRLSCAASGSTFGGNAMGWYRQAPGKERELVAAITSGTGTHYADSVKGRFTISRDNAKNTVYLQMNSLKPEATAVYFCAAEVWSWAGIWGYEYWGQGTQVSVSS” the “polyreactivity (PSR sort gate)” value was “low polyreactivity”. For “QVQLVESGGGIVQAGGSLRLSCAASGSTFLTNTMGWYRQAPGTESELVAAITLRGGRTYYADSVKGRFTISRDNAKNTVYLQMNSLKPEDTAVYYCNARNYYYPSDRDYWGQGTQVTGSS”, the “polyreactivity (PSR sort gate)” value was “low polyreactivity”. For “QVQLVESGGGIVQAGGSLRLSCAASGSTFPPNAMGWYRQAPGKERELVAGINGSGGRTYYADSVKGRFTISRDNAKNTVYLQMNSLKPVDTAVYYCATRLRSEYYYNKWYYHWGQGTQVTVSS”, the “polyreactivity (PSR sort gate)” value was “high polyreactivity”. In the case of “QVQLVESGGGIVQAGGSLRLSCAASGSTFRRYAMGWYRQAPGKERELVASISWSGGSTSYADSVKGRFTISRDNAKNTVYLQMNSLKPEDTAGYYCAAVRYYWGEYYARYAYEYWGQGTQVTVSS”, the “polyreactivity (PSR sort gate)” value is reported as “high polyreactivity”. In the case of “QVQLVESGGGIVQAGGSLRLSCAASGSTFWFNDMGWYRAAPGKEREFVAAISSSGGSTYYADSVKGRFTISRDNAKNTVYVQMNSLKPEDTAVYYWAVEVVRDYRYADWGQGTQVTVSS”, the “polyreactivity (PSR sort gate)” value is reported as “low polyreactivity”. In the case of “QVQLVESGGGIVQAGGSLRLSCAASGSTFYLYAMGWYRQAPGKERELVAAISTVGSTNYADSVNGRFTISRDNAKNTVYLQMNSLKPEDTAVYYCNAEYYGVVEYDYWGHGTQVTVSS”, the “polyreactivity (PSR sort gate)” value is reported as “low polyreactivity”. In the case of “QVQLVESGGGIVQAGGSLRLSCAASGSTFYVYALGWYRQAPGKERELVAAINFNGGGTYYADSVKGRFTISRDNAKNTVYLQMNRLKPEDTAVYYCNAEDDYTYDRSFGGYKYDYWGQGTQVTVSS”, the “polyreactivity (PSR sort gate)” value is reported as “low polyreactivity”. For “QVQLVESGGGIVQAGGSLRLSCAASGSTLFGDAMGLYRQAPGKERELVAAINRRGSTNYADSVKGRFTISRDNAKNTVYLKMNCLKPEDTAVYYCAAYIYKTYRYYYWGQGTQVTVSS”, the “polyreactivity (PSR sort gate)” value was “high polyreactivity”. For “QVQLVESGGGIVQAGGSLRLSCAASGYTFTGYSMGWYRQAPGKEREFVAGITWRTGRTYYADSVKGRFTISRDNAKNNVYLQMNSLKREDTAVYFCYKDHQRRYYWSYDYWGQGTQVTVSS”, the “polyreactivity (PSR sort gate)” value was “low polyreactivity”. In the case of “QVQLVESGGGIVQAGGSLRLSCAASVFTFRANTMGWYRPAPGKERELVAAISPSGGSTYYADSVKGRFTISRDNAKNTVYLQMNSLKPEDTAVYYCNADIEYRPGHGRLGDYDYWGQGTQVTVSS”, the “polyreactivity (PSR sort gate)” value is reported as “low polyreactivity”. For “QVQLVESGGGIVQAGGSLRLSCPASGFIGVNGMGWYIQAPGKERELVAAISSGGSTNYADSVKGRFTMSRDNAKNTVYLQMNSLKPEDTAVYYCAKDFLLDSFYHTYRYRYDYWGQGTQVTVSS”, the “polyreactivity (PSR sort gate)” value was “low polyreactivity”. With “QVQLVESGGGIVQAGGSLRLSCSASGFSFSSYAMGWYRQAPGKERELVASITWSGGRTYYADSVKGRFTISRDNAKNTVYLQMNSLKPEDTAVYYCAPGDVNWSYSLLYTVVLFDSWGQGTQVTVSS” the “polyreactivity (PSR sort gate)” value was “high polyreactivity”.
